From article PMC12102759 (2025)

B1: CBL peptide 538-553 (E3 ubiquitin-protein ligase CBL), 16-mer library wild type / YES SH3 (YES1 SH3 domain, residues 90-152) (parent complex)
chain 1: TLRDLPPPPPPDRPYS
chain 2: not shown

Variants of: B1
Experiment: proteomic peptide phage display deep mutational scan (ProP-PD DMS): M13 P8 16-mer library selected against immobilised GST-tagged bait for four days (rounds), NGS of the eluted pools per day and pseudo-replica; bait immobilised on MaxiSorp plates (10 µg), library pre-cleared on GST, 2 h binding at 4 °C, five washes; one round per day, days 1-4; value from days 2 and 3

Variant	screen value
chain 1 P10R	0.000614 average fractional NGS count over selection days 2 and 3 (reads of this peptide / all reads for the bait, averaged over …
chain 1 P10I	0.00183 average fractional NGS count over selection days 2 and 3 (reads of this peptide / all reads for the bait, averaged over …
chain 1 P6H	0.000126 average fractional NGS count over selection days 2 and 3 (reads of this peptide / all reads for the bait, averaged over …
chain 1 P6S	0.000101 average fractional NGS count over selection days 2 and 3 (reads of this peptide / all reads for the bait, averaged over …
chain 1 Y15V	0.00865 average fractional NGS count over selection days 2 and 3 (reads of this peptide / all reads for the bait, averaged over …
chain 1 Y15I	0.000521 average fractional NGS count over selection days 2 and 3 (reads of this peptide / all reads for the bait, averaged over …
chain 1 Y15M	0.000526 average fractional NGS count over selection days 2 and 3 (reads of this peptide / all reads for the bait, averaged over …
chain 1 Y15R	0.000143 average fractional NGS count over selection days 2 and 3 (reads of this peptide / all reads for the bait, averaged over …
chain 1 Y15L	0.00132 average fractional NGS count over selection days 2 and 3 (reads of this peptide / all reads for the bait, averaged over …
chain 1 Y15Q	0.000766 average fractional NGS count over selection days 2 and 3 (reads of this peptide / all reads for the bait, averaged over …
chain 1 Y15N	7.8e-05 average fractional NGS count over selection days 2 and 3 (reads of this peptide / all reads for the bait, averaged over …
chain 1 Y15W	0.000273 average fractional NGS count over selection days 2 and 3 (reads of this peptide / all reads for the bait, averaged over …
chain 1 Y15F	0.00101 average fractional NGS count over selection days 2 and 3 (reads of this peptide / all reads for the bait, averaged over …
chain 1 P8V	0.0024 average fractional NGS count over selection days 2 and 3 (reads of this peptide / all reads for the bait, averaged over …
chain 1 P8Y	0.00011 average fractional NGS count over selection days 2 and 3 (reads of this peptide / all reads for the bait, averaged over …
chain 1 P8F	5.53e-05 average fractional NGS count over selection days 2 and 3 (reads of this peptide / all reads for the bait, averaged over …
chain 1 P8I	0.000407 average fractional NGS count over selection days 2 and 3 (reads of this peptide / all reads for the bait, averaged over …
chain 1 P8T	0.000116 average fractional NGS count over selection days 2 and 3 (reads of this peptide / all reads for the bait, averaged over …
chain 1 P8M	0.000558 average fractional NGS count over selection days 2 and 3 (reads of this peptide / all reads for the bait, averaged over …
chain 1 P8E	0.0001 average fractional NGS count over selection days 2 and 3 (reads of this peptide / all reads for the bait, averaged over …
chain 1 P14W	0.00023 average fractional NGS count over selection days 2 and 3 (reads of this peptide / all reads for the bait, averaged over …
chain 1 P14V	0.0011 average fractional NGS count over selection days 2 and 3 (reads of this peptide / all reads for the bait, averaged over …
chain 1 P14H	0.00144 average fractional NGS count over selection days 2 and 3 (reads of this peptide / all reads for the bait, averaged over …
chain 1 P14E	0.000212 average fractional NGS count over selection days 2 and 3 (reads of this peptide / all reads for the bait, averaged over …
chain 1 P14G	0.000593 average fractional NGS count over selection days 2 and 3 (reads of this peptide / all reads for the bait, averaged over …

Variant	screen value
chain 1 P14S	0.00038 average fractional NGS count over selection days 2 and 3 (reads of this peptide / all reads for the bait, averaged over …
chain 1 P14L	0.00213 average fractional NGS count over selection days 2 and 3 (reads of this peptide / all reads for the bait, averaged over …
chain 1 P14A	0.000568 average fractional NGS count over selection days 2 and 3 (reads of this peptide / all reads for the bait, averaged over …
chain 1 L2T	0.00177 average fractional NGS count over selection days 2 and 3 (reads of this peptide / all reads for the bait, averaged over …
chain 1 L2E	0.00558 average fractional NGS count over selection days 2 and 3 (reads of this peptide / all reads for the bait, averaged over …
chain 1 L2I	0.000452 average fractional NGS count over selection days 2 and 3 (reads of this peptide / all reads for the bait, averaged over …
chain 1 L2W	0.00229 average fractional NGS count over selection days 2 and 3 (reads of this peptide / all reads for the bait, averaged over …
chain 1 L2M	0.00216 average fractional NGS count over selection days 2 and 3 (reads of this peptide / all reads for the bait, averaged over …
chain 1 L2V	0.00022 average fractional NGS count over selection days 2 and 3 (reads of this peptide / all reads for the bait, averaged over …
chain 1 L2D	0.000976 average fractional NGS count over selection days 2 and 3 (reads of this peptide / all reads for the bait, averaged over …
chain 1 L2P	0.00136 average fractional NGS count over selection days 2 and 3 (reads of this peptide / all reads for the bait, averaged over …
chain 1 L2N	0.00027 average fractional NGS count over selection days 2 and 3 (reads of this peptide / all reads for the bait, averaged over …
chain 1 L2R	0.000311 average fractional NGS count over selection days 2 and 3 (reads of this peptide / all reads for the bait, averaged over …
chain 1 L2F	0.00251 average fractional NGS count over selection days 2 and 3 (reads of this peptide / all reads for the bait, averaged over …
chain 1 L2A	0.00082 average fractional NGS count over selection days 2 and 3 (reads of this peptide / all reads for the bait, averaged over …
chain 1 D12V	0.00115 average fractional NGS count over selection days 2 and 3 (reads of this peptide / all reads for the bait, averaged over …
chain 1 D12H	0.00265 average fractional NGS count over selection days 2 and 3 (reads of this peptide / all reads for the bait, averaged over …
chain 1 D12P	0.00103 average fractional NGS count over selection days 2 and 3 (reads of this peptide / all reads for the bait, averaged over …
chain 1 D12L	0.00406 average fractional NGS count over selection days 2 and 3 (reads of this peptide / all reads for the bait, averaged over …
chain 1 D12K	0.00012 average fractional NGS count over selection days 2 and 3 (reads of this peptide / all reads for the bait, averaged over …
chain 1 D12M	0.00124 average fractional NGS count over selection days 2 and 3 (reads of this peptide / all reads for the bait, averaged over …
chain 1 D12T	0.00128 average fractional NGS count over selection days 2 and 3 (reads of this peptide / all reads for the bait, averaged over …
chain 1 D12Q	0.00108 average fractional NGS count over selection days 2 and 3 (reads of this peptide / all reads for the bait, averaged over …
chain 1 P11T	0.00257 average fractional NGS count over selection days 2 and 3 (reads of this peptide / all reads for the bait, averaged over …
chain 1 P11M	0.000374 average fractional NGS count over selection days 2 and 3 (reads of this peptide / all reads for the bait, averaged over …

Variant	screen value
chain 1 P11Q	0.000805 average fractional NGS count over selection days 2 and 3 (reads of this peptide / all reads for the bait, averaged over …
chain 1 P11I	0.00017 average fractional NGS count over selection days 2 and 3 (reads of this peptide / all reads for the bait, averaged over …
chain 1 P11R	0.000288 average fractional NGS count over selection days 2 and 3 (reads of this peptide / all reads for the bait, averaged over …
chain 1 P11F	0.00176 average fractional NGS count over selection days 2 and 3 (reads of this peptide / all reads for the bait, averaged over …
chain 1 P11L	0.000447 average fractional NGS count over selection days 2 and 3 (reads of this peptide / all reads for the bait, averaged over …
chain 1 P11H	0.000426 average fractional NGS count over selection days 2 and 3 (reads of this peptide / all reads for the bait, averaged over …
chain 1 P11Y	0.00117 average fractional NGS count over selection days 2 and 3 (reads of this peptide / all reads for the bait, averaged over …
chain 1 P11K	0.00117 average fractional NGS count over selection days 2 and 3 (reads of this peptide / all reads for the bait, averaged over …
chain 1 P11A	0.000414 average fractional NGS count over selection days 2 and 3 (reads of this peptide / all reads for the bait, averaged over …
chain 1 P11V	0.000274 average fractional NGS count over selection days 2 and 3 (reads of this peptide / all reads for the bait, averaged over …
chain 1 P11S	4.62e-05 average fractional NGS count over selection days 2 and 3 (reads of this peptide / all reads for the bait, averaged over …
chain 1 P11N	9.7e-05 average fractional NGS count over selection days 2 and 3 (reads of this peptide / all reads for the bait, averaged over …
chain 1 P11W	0.000174 average fractional NGS count over selection days 2 and 3 (reads of this peptide / all reads for the bait, averaged over …
chain 1 P11D	7.75e-05 average fractional NGS count over selection days 2 and 3 (reads of this peptide / all reads for the bait, averaged over …
chain 1 R13W	0.00314 average fractional NGS count over selection days 2 and 3 (reads of this peptide / all reads for the bait, averaged over …
chain 1 R13V	0.000492 average fractional NGS count over selection days 2 and 3 (reads of this peptide / all reads for the bait, averaged over …
chain 1 R13H	6.28e-05 average fractional NGS count over selection days 2 and 3 (reads of this peptide / all reads for the bait, averaged over …
chain 1 R13A	0.00128 average fractional NGS count over selection days 2 and 3 (reads of this peptide / all reads for the bait, averaged over …
chain 1 R13S	0.000102 average fractional NGS count over selection days 2 and 3 (reads of this peptide / all reads for the bait, averaged over …
chain 1 R13F	0.000441 average fractional NGS count over selection days 2 and 3 (reads of this peptide / all reads for the bait, averaged over …
chain 1 R13T	0.000227 average fractional NGS count over selection days 2 and 3 (reads of this peptide / all reads for the bait, averaged over …
chain 1 R13G	3.78e-05 average fractional NGS count over selection days 2 and 3 (reads of this peptide / all reads for the bait, averaged over …
chain 1 R13I	0.000728 average fractional NGS count over selection days 2 and 3 (reads of this peptide / all reads for the bait, averaged over …
chain 1 R13E	0.000127 average fractional NGS count over selection days 2 and 3 (reads of this peptide / all reads for the bait, averaged over …
